Measurements taken from publication PMC6477179 (2019).

Molecular target: GST-p62 FIR (aa 326-380) (human, UniProt Q13501 326-380)
Assay: SPR

B1: FIP200 CTR (aa 1458-1594) (domain or fragment)
chain: RIMLLERTLQLKEEENKRLNQRLMSQSMSSVSSRHSEKIAIRDFQVGDLVLIILDERHDNYVLFTVSPTLYFLHSESLPALDLKPGEGASGASRRPWVLGKVMEKEYCQAKKAQNRFKVPLGTKFYRVKAVSWNKKV
Kd: 5.1 µM
